pKd: −log10 of the molar value. A value given as a limit tells only on which side of the number the result lay.

Broadly, the pKd is −log10 of the Kd, conventionally taken in molar units. Read a high pKd as a low Kd.

For one assay, the target named is HLA-A*02:12. Briefly: IEDB peptide-MHC binding, purified MHC/competitive/fluorescence; filed as Kd, often an IC50 or EC50 that approximates it; ≥ and ≤ were set here for values at or beyond the usual limits of such assays. As to conditions: source organism: Vibrio vulnificus.
Assay [1] concerns the target HLA-B*46:01. The assay is described as above. As to conditions: source organism: Vibrio vulnificus.
In the next assay the target is HLA-A*23:01. The description is as above.
In the next assay the target is HLA-B*39:01. The description is as above.
Assay [2] has as its target HLA-B*15:01. Described as above. As to conditions: source organism: Vibrio vulnificus.
The target in another assay is HLA-A*02:16. The assay is described as above. The following applies: source organism: Vibrio vulnificus.
A further assay addresses HLA-A*29:02. The description is as above. The following applies: source organism: Vibrio vulnificus.
The target of another assay is HLA-A*02:03. Described as above. The following applies: source organism: Vibrio vulnificus.
The target in another assay is HLA-A*26:01. The assay is described as above. As to conditions: source organism: Vibrio vulnificus.
The target of the next assay is HLA-A*03:01. Described as above.
For assay [3], the target named is HLA-B*15:17. Described as above. As to conditions: source organism: Vibrio vulnificus.
For a further assay, the target named is HLA-A*68:02. Described as above. The following applies: source organism: Vibrio vulnificus.
A further assay concerns the target HLA-A*02:19. The description is as above. As to conditions: source organism: Vibrio vulnificus.
Another assay addresses HLA-A*02:11. The assay is described as above. The following applies: source organism: Vibrio vulnificus.
The target of another assay is HLA-A*24:03. Described as above. As to conditions: source organism: Vibrio vulnificus.
In assay [4] the target is HLA-B*51:01. The assay is described as above. The following applies: source organism: Vibrio vulnificus.
Assay [5] has as its target HLA-B*57:01. The assay is described as above. The following applies: source organism: Vibrio vulnificus.
For a further assay, the target named is HLA-B*27:03. The assay is described as above. The following applies: source organism: Vibrio vulnificus.
For assay [6], the target named is HLA-B*18:01. The description is as above. As to conditions: source organism: Vibrio vulnificus.
The target of assay [7] is HLA-A*69:01. Described as above. As to conditions: source organism: Vibrio vulnificus.
In assay [8] the target is HLA-A*02:01. The assay is described as above. The following applies: source organism: Vibrio vulnificus.
Another assay deals with HLA-A*24:02. The description is as above.
The target in a further assay is HLA-B*15:09. The description is as above. As to conditions: source organism: Mycobacterium leprae.
The next assay addresses HLA-A*11:01. Described as above. As to conditions: source organism: Mycobacterium leprae.
In the next assay the target is HLA-A*31:01. Described as above. The following applies: source organism: Mycobacterium leprae.
The target in another assay is HLA-B*40:01. Briefly: IEDB peptide-MHC binding, purified MHC/direct/fluorescence; filed as Kd, often an IC50 or EC50 that approximates it; ≥ and ≤ were set here for values at or beyond the usual limits of such assays. As to conditions: source organism: Mycobacterium tuberculosis.
A further assay concerns the target HLA-B*27:05. The assay is described as above. As to conditions: source organism: Mycobacterium tuberculosis.
Assay [9] addresses HLA-B*46:01. The assay is described as above. The following applies: source organism: Mycobacterium tuberculosis.
Another assay concerns the target HLA-B*58:01. Described as above. As to conditions: source organism: Mycobacterium tuberculosis.
Assay [10] concerns the target HLA-B*15:01. The assay is described as above. The following applies: source organism: Mycobacterium tuberculosis.
In another assay the target is HLA-B*08:01. Described as above. The following applies: source organism: Mycobacterium tuberculosis str. Haarlem.
Assay [11] addresses HLA-B*15:17. The description is as above. As to conditions: source organism: Mycobacterium tuberculosis.
Another assay deals with HLA-B*48:01. The assay is described as above. The following applies: source organism: Mycobacterium tuberculosis.
Assay [12] addresses HLA-B*51:01. The assay is described as above. The following applies: source organism: Mycobacterium tuberculosis.
Assay [13] addresses HLA-B*57:01. The description is as above. As to conditions: source organism: Mycobacterium tuberculosis.
Assay [14] addresses HLA-B*18:01. Described as above. As to conditions: source organism: Mycobacterium tuberculosis.
For assay [15], the target named is HLA-A*69:01. The assay is described as above. The following applies: source organism: Mycobacterium tuberculosis.
The target in assay [16] is HLA-A*02:01. Described as above. As to conditions: source organism: Mycobacterium tuberculosis.
The target in a further assay is HLA-A*01:01. The description is as above. The following applies: source organism: Mycobacterium tuberculosis.
In a further assay the target is HLA-C*14:02. The description is as above.
In the next assay the target is HLA-C*15:02. Described as above. As to conditions: source organism: Cryptosporidium parvum Iowa II.
A further assay deals with HLA-C*06:02. Described as above. As to conditions: source organism: Cryptosporidium parvum Iowa II.
Setting [17] is: source organism: Vibrio vulnificus.
Setting [18] is: source organism: Mycobacterium leprae.
Where [19] appears, read: source organism: Bacillus thuringiensis serovar tochigiensis BGSC 4Y1.
The mark [20] stands for this setting: source organism: Cryptosporidium parvum Iowa II.

DEWECTRDD: the pKd with HLA-A*02:12, with HLA-B*46:01 [1], with HLA-A*23:01 (setting [17]), with HLA-B*39:01 (setting [17]), in the assay with HLA-B*15:01 [2] and with HLA-A*02:16 was at most 4.70 throughout. The pKd in the assay with HLA-A*29:02, with HLA-A*02:03, with HLA-A*26:01, with HLA-A*03:01 (setting [17]), in the assay with HLA-B*15:17 [3] and with HLA-A*68:02 was at most 4.70 throughout. Moreover, the pKd with HLA-A*02:19, in the assay with HLA-A*02:11, with HLA-A*24:03, in the assay with HLA-B*51:01 [4], in the assay with HLA-B*57:01 [5] and with HLA-B*27:03 was at most 4.70 each time. The pKd in the assay with HLA-B*18:01 [6] is 7.23; with HLA-A*69:01 [7] it was at most 4.70; in the assay with HLA-A*02:01 [8] it was at most 4.70.

Sequence SFYKNLIW gave a pKd with HLA-A*24:02 (source organism: Influenza A virus (A/swine/Korea/Hongsong2/2004(H1N2))) of 6.86.

For IYAAISYMI, in the assay with HLA-A*24:02 (source organism: Salmonella enterica subsp. enterica serovar Typhi), the pKd is at least 10.00.

Turning to YPACEAIGL, the pKd was 6.28 with HLA-B*15:09; 7.51 in the assay with HLA-B*39:01 (setting [18]); 6.07 with HLA-A*11:01; at most 4.70 with HLA-A*03:01 (setting [18]); at most 4.70 in the assay with HLA-A*31:01; at most 4.70 in the assay with HLA-B*40:01. For the same sequence, the pKd with HLA-B*27:05, in the assay with HLA-B*46:01 [9], in the assay with HLA-B*58:01, with HLA-B*15:01 [10], with HLA-B*08:01 and with HLA-B*15:17 [11] was at most 4.70 throughout. Moreover, the pKd was at most 4.70 in the assay with HLA-B*48:01; at most 4.70 with HLA-B*51:01 [12]; at most 4.70 in the assay with HLA-B*57:01 [13]; 6.78 in the assay with HLA-B*18:01 [14]; 7.04 with HLA-A*69:01 [15]; at most 4.70 with HLA-A*02:01 [16]. In the assay with HLA-A*01:01, the pKd was at most 4.70.

For KYAKFFQNF, the pKd was at least 10.00 with HLA-A*24:02 (setting [19]) and 6.37 with HLA-C*14:02 (setting [19]).

Consider SFLHWFHHL, for which the pKd was at least 10.00 with HLA-A*23:01 (setting [20]), at most 4.70 in the assay with HLA-C*15:02, 6.95 with HLA-C*14:02 (setting [20]) and at most 4.70 in the assay with HLA-C*06:02.

(Values after the Immune Epitope Database (IEDB).)
